Assay results as given in patent publication US9051581B2, “Defense peptides against fungal infection and method of their use” (The Curators of the University of Missouri, priority 2010, dated 2015).

B1: ZmCKX1: recombinant maize cytokinin oxidase scaffold without peptide insert, control (protein)
chain: LAAGTPALGDDRGRPWPASLAALALDGKLRTDSNATAAASTDFGNITSALPAAVLYPSSTGDLVALLSAANSTPGWPYTIAFRGRGHSLMGQAFAPGGVVVNMASLGDAAAPPRINVSADGRYVDAGGEQVWIDVLRASLARGVAPRSWNDYLYLTVGGTLSNAGISGQAFRHGPQISNVLEMDVITGHGEMVTCSKQLNADLFDAVLGGLGQFGVITRARIAVEPAPARARWVRFVYTDFAAFSADQERLTAPRPGGGGASFGPMSYVEGSVFVNQSLATDLANTGFFTDADVARIVALAGERNATTVYSIEATLNYDNATAAAAAVDQELASVLGTLSYVEGFAFQRDVAYAAFLDRVHGEEVALNKLGLWRVPHPWLNMFVPRSRIADFDRGVFKGILQGTDIVGPLIVYPLNKSMWDDGMSAATPSEDVFYAVSLLFSSVAPNDLARLQEQNRRILRFCDLAGIQYKTYLARHTDRSDWVRHFGAAKWNRFVEMKNKYDPKRLLSPGQDIFN
B2: ZmCKX1-Sp39: peptide Sp39 fused to the C-terminus of the scaffold protein ZmCKX1, expressed in Pichia pastoris (protein)
chain: LAAGTPALGDDRGRPWPASLAALALDGKLRTDSNATAAASTDFGNITSALPAAVLYPSSTGDLVALLSAANSTPGWPYTIAFRGRGHSLMGQAFAPGGVVVNMASLGDAAAPPRINVSADGRYVDAGGEQVWIDVLRASLARGVAPRSWNDYLYLTVGGTLSNAGISGQAFRHGPQISNVLEMDVITGHGEMVTCSKQLNADLFDAVLGGLGQFGVITRARIAVEPAPARARWVRFVYTDFAAFSADQERLTAPRPGGGGASFGPMSYVEGSVFVNQSLATDLANTGFFTDADVARIVALAGERNATTVYSIEATLNYDNATAAAAAVDQELASVLGTLSYVEGFAFQRDVAYAAFLDRVHGEEVALNKLGLWRVPHPWLNMFVPRSRIADFDRGVFKGILQGTDIVGPLIVYPLNKSMWDDGMSAATPSEDVFYAVSLLFSSVAPNDLARLQEQNRRILRFCDLAGIQYKTYLARHTDRSDWVRHFGAAKWNRFVEMKNKYDPKRLLSPGQDIFNYNKPSFQDHSVI
B3: ZmCKX1-Sp2: peptide Sp2 fused to the C-terminus of the scaffold protein ZmCKX1, expressed in Pichia pastoris (protein)
chain: LAAGTPALGDDRGRPWPASLAALALDGKLRTDSNATAAASTDFGNITSALPAAVLYPSSTGDLVALLSAANSTPGWPYTIAFRGRGHSLMGQAFAPGGVVVNMASLGDAAAPPRINVSADGRYVDAGGEQVWIDVLRASLARGVAPRSWNDYLYLTVGGTLSNAGISGQAFRHGPQISNVLEMDVITGHGEMVTCSKQLNADLFDAVLGGLGQFGVITRARIAVEPAPARARWVRFVYTDFAAFSADQERLTAPRPGGGGASFGPMSYVEGSVFVNQSLATDLANTGFFTDADVARIVALAGERNATTVYSIEATLNYDNATAAAAAVDQELASVLGTLSYVEGFAFQRDVAYAAFLDRVHGEEVALNKLGLWRVPHPWLNMFVPRSRIADFDRGVFKGILQGTDIVGPLIVYPLNKSMWDDGMSAATPSEDVFYAVSLLFSSVAPNDLARLQEQNRRILRFCDLAGIQYKTYLARHTDRSDWVRHFGAAKWNRFVEMKNKYDPKRLLSPGQDIFNMLESHAWPPRAI

Key:
[1] = tested on: 20 kDa Phakopsora pachyrhizi protein; assay: Far-western assay for P. pachyrhizi proteins that bind the peptides; format: binding; settings: protein from germinated urediniospores; bait protein, ZmCKX1 antibody detection
Experimental: A far-western assay was used to identify P. pachyrhizi proteins that bind to the disclosed peptides (3, 35). To prepare fungal proteins, MOS-2008 urediniospores were germinated and grown for 4 h. Fungal tissues were ground in liquid nitrogen and suspended in phosphate buffer (pH. 6.5) containing 0.1 M mannitol and Tween-20. Fungal debris was separated from soluble material by centrifugation, and the protein concentration of the soluble fraction was determined. Equal amounts of protein were loaded into the wells of an acrylamide gel, separated by SDS-PAGE, and then transferred to PVDF membrane. The membranes were incubated with a bait protein that consisted of the ZmCKX1 scaffold alone, ZmCKX1-Sp2, or ZmCKX1-Sp39. The unbound bait proteins were washed off of the blot, and the blot was incubated with ZmCKX1 polyclonal antibody (1), followed by a second antibody, anti-rabbit IgG conjugated to alkaline phosphatase (Promega, Madison, Wis.).

[2] = tested on: Phakopsora pachyrhizi urediniospores; assay: In vitro inhibition of urediniospore germ tube growth by ZmCKX1-peptides; format: cell-based; settings: for decrease of germ tube growth in comparison to water: 230 μM (highest concentration); for decrease of germ tube growth in comparison to water / reduction of average germ tube length in comparison to water: 8 h incubation; for reduction of average germ tube length in comparison to water: 58 μM
Experimental: Purified ZmCKX1-Sp2 and ZmCKX1-Sp39 peptides were assessed in vitro for the ability to inhibit urediniospore germination. A 25-μl water droplet containing 300 freshly harvested MOS-2008 urediniospores was incubated on a glass slide in the presence of either ZmCKX1-Sp2 or ZmCKX1-Sp39. Control treatments included urediniospores incubated in water or in the presence of ZmCKX1 alone. Germ tube growth was visualized over time and quantified by image capture and analyses as described previously.

[3] = tested on: Phakopsora pachyrhizi urediniospores; assay: Inhibition of soybean leaf infection (rust lesion formation) by ZmCKX1-peptides; format: in vivo; settings: 7 days of incubation; 115 μM; water close to 50%
Experimental: Young, fully expanded leaves were excised from soybean plants (Williams 82) and used for assessment of ZmCKX1-peptide inhibition. Two 10-μl droplets of each ZmCKX1-peptide-urediniospore mixture or control treatment were applied to the upper surface of a single leaf. Each droplet contained 50 urediniospores mixed with either ZmCKX1-Sp2 or ZmCKX1-Sp39 at a final concentration of 115 μM. Control treatments included urediniospores in water or mixed with 115 μM ZmCKX1. Droplet treatments were replicated four times.
Inoculated leaves were incubated for 8 h before rinsing away droplets and drying as described previously. Leaves were transferred to sealed Petri dishes and incubated in a growth chamber at 22° C. and 90% RH, under a 12 h light/dark cycle. The percentage of inoculations that produced rust lesions was recorded at 3 to 4 day intervals for 27 days.

Row | Molecule | detection of fungal protein band in far-western blot [1] | decrease of germ tube growth in comparison to water [2] [%] | germ tube growth inhibition ([2]; all concentrations except 230 μM, 8 h) | inoculations that produced lesions [3] [%] | reduction of average germ tube length in comparison to water [2] [%]
1 | B1 | absent | 26 | less than 10% |  | 
2 | B2 | specifically interacted with a fungal protein approximately 20 kDa in size | 91 |  | 16 | 36
3 | B3 | specifically interacted with a fungal protein approximately 20 kDa in size | 94 |  | 13 | 52
